Data taken from the supplement of paper PMC10567573.
± gives the standard deviation.

Assay: protein stability index of a GFP-peptide fusion (GPS, HEK-293T) (PSI 1-6); higher = more stable
Details: c terminus: a fixed tail appended
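Also: 24-mer peptide tiles fused after GFP, lentivirally expressed, FACS-sorted into six equal bins by GFP/DsRed ratio, decoded by Illumina sequencing, PSI is the read-weighted mean bin number.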

Sequence | protein stability index (treatment: DMSO) | protein stability index (treatment: MLN4924 1 uM, 8 h)
PSVPDNAELVLLTLGQAWQGYVSD [DFFB] | 2.64 ± 0.52 | 2.84 ± 0.32
PSVYHAMPSPCSCMSFNPETRRLS [WDFY2] | 2.57 ± 0.36 | 2.88 ± 0.41
PTCPVCKDRASPADLRTNHTLNNL [TRIM35] | 3.62 ± 0.21 | 3.9 ± 0.46
PTLSCEKYLTYDQLRKQKKKTGKS [ELOA2] | 3.98 ± 0.19 | 4.57 ± 0.24
PVPVIVSNFNYFYHRETEGEEQSQ [KCNA3] | 3.81 ± 0.34 | 4.15 ± 0.28
PVVKLLHNRSNNKYSYTSTSDDNL [KCTD13] | 3.82 ± 0.16 | 3.94 ± 0.19
PWGFRLQGGKDFNVPLSISRLTPG [PDLIM7] | 2.66 ± 0.18 | 2.66 ± 0.29
QALGEHLKLRQQVIATATVYFKRF [CCNC] | 2.54 ± 0.55 | 2.48 ± 0.42
QALLKENRLLQEENRTLQVLRAEH [CBY2] | 4.02 ± 0.2 | 4.2 ± 0.065
QAMFDTLGIPKSTTSDIPHMLNQV [FAM98B] | 3.18 ± 0.23 | 3.23 ± 0.26
QCSNRIGSMKIKSSWDIDGRATKR [FBXO34] | 3.28 ± 0.2 | 3.52 ± 0.28
QDIENALSTSSSPSGTPTNLRRHV [DLC1] | 4.96 ± 0.17 | 4.94 ± 0.2
QDLCCRAVVSCTPVHLVDKLPLPI [RAB40B] | 2.4 ± 0.27 | 2.09 ± 0.56
QEDAPMIEPLVPEEKMETKTESSG [EPB41L3] | 5.69 ± 0.17 | 5.63 ± 0.13
QEDKALWEEEKALWVEERALLEGE [CCDC70] | 5.09 ± 0.3 | 5.17 ± 0.33
QEEEQAETPMAPVPLGPLGETYCE [TRIM15] | 5.4 ± 0.17 | 5.57 ± 0.16
QEENKSLREENKALREENRMLSKE [CBY2] | 5.56 ± 0.47 | 5.587 ± 0.023
QELIQEAKPRATWTLKLDGNLQLD [RTP4] | 3.886 ± 0.038 | 3.82 ± 0.32
QEQVAGGEAQPGLPQEDPSTSQGC [FEM1A] | 5.34 ± 0.12 | 5.42 ± 0.43
QEVFEPPHYELCTLRGTGATADFA [NETO1] | 3.91 ± 0.28 | 3.88 ± 0.26
QEYAAKIINTKKLSARDHQKLERE [CAMK2A] | 4.71 ± 0.22 | 4.78 ± 0.19
QFEANGYFFKRPYPFVLFYSKFHG [KMT2E] | – | 2.91 ± 1.9

Sequence | protein stability index (treatment: DMSO) | protein stability index (treatment: MLN4924 1 uM, 8 h)
QFRMAQEEARRNRLMRDMAQLRLQ [SMG5] | 2.95 ± 0.21 | 3.25 ± 0.26
QGLLGRSPPTRPVPGHRSERAIRT [SPRY1] | 4.51 ± 0.21 | 4.47 ± 0.2
QIVTKKIDLSHVTSKCGSLKNIRH [MAP2] | 2.67 ± 0.039 | 2.71 ± 0.2
QIYHCTKRKEEECSTTDHPYKKPY [TBX5] | 3.92 ± 0.095 | 4.25 ± 0.26
QKGLGGAMVWALDLDDFAGFSCNQ [CHIT1] | 2.31 ± 0.32 | 2.42 ± 0.16
QKSVTRSCLLEEEEESGEEAAEAM [POP5] | 5.37 ± 0.42 | 5.47 ± 0.27
QLDSRYWRITNAKGDVEEVQGPGV [FBXO3] | 4.14 ± 0.22 | 4.22 ± 0.14
QLEVTCTPYLKETLNSIWNVEDHI [POMT2] | 2.51 ± 0.32 | 2.44 ± 0.34
QLLEDAILIIQGVLSDINLKKGES [NET1] | 3.37 ± 0.24 | 3.77 ± 0.19
QLLTLRELEMIGFIENNVSKLSLL [TRIP13] | 2.51 ± 0.28 | 2.66 ± 0.52
QLRSDVCTPGGTTIYGLHALEQGG [PYCR3] | 3.69 ± 0.23 | 3.61 ± 0.51
QLSMLPHLADLVSYSIQKVIGFAK [VDR] | 2.28 ± 0.2 | 2.48 ± 0.5
QLSPNKHFSLRVQSRANGVKYPEL [PCDHGA10] | 3 ± 0.18 | 3.02 ± 0.23
QNEEYLLTYINEDRISTTFRLTTL [PLK2] | 2.6 ± 0.37 | 2.29 ± 0.58
QNQEYKMLLDIKTRLEQEIATYRS [KRT15] | 3.31 ± 0.18 | 3.46 ± 0.37
QPCFFQDISMEIPQEFQKTVSTMY [SCAMP3] | 2.55 ± 0.4 | 2.64 ± 0.23
QPGPSGAPAQRATRGFLRSPSSDL [RETREG3] | 3.97 ± 0.24 | 4.27 ± 0.23
QPGTNCALAIKVNLCGHWYYSKAC [ADAMTSL2] | 2.7 ± 0.72 | 2.75 ± 0.45
QPKEKIQAIIESCSRQFPEFQERA [NOL4L] | 3.7 ± 0.36 | 3.85 ± 0.1
QPLEGGTPNSAGGPGAHILRRKSP [ADAMTS4] | 5.34 ± 0.43 | 5.37 ± 0.17
QPPNAEEESGSSSASEEEDTKPKP [INTS3] | 5.72 ± 0.23 | 5.65 ± 0.21
QPRKGGADWLGLKDEDLDLFPASP [FBF1] | 4.71 ± 0.1 | 4.79 ± 0.17

Sequence | protein stability index (treatment: DMSO) | protein stability index (treatment: MLN4924 1 uM, 8 h)
QQQVKTNGAGVTVLRREISELRTK [FBXO28] | 4.32 ± 0.19 | 4.44 ± 0.32
QRAEMLPKTSGTRATSLGRPEEEE [CPOX] | 5.47 ± 0.37 | 5.49 ± 0.28
QRAFSIQTPEQYYFCYKAILEFAE [PTPN9] | 2.16 ± 0.29 | 2.16 ± 0.35
QRELHSHVTNAMVLVNVLQAIYVI [DHCR7] | 2.61 ± 0.59 | 2.78 ± 0.61
QRLIKKVQEAVLDKWVNDPHRMDR [GOLPH3] | 2.34 ± 0.19 | 2.27 ± 0.2
QRVKLKLWDTSGQGRFCTIFRSYS [RAB40A] | 2.3 ± 0.29 | 2.14 ± 0.33
QSSPSFAEKCLDFLVDMFNDEIEE [INTS4] | 2.87 ± 0.1 | 3.18 ± 0.2
QVADVPEKPRVPAFACQVAGCCQV [ZNF511] | 3.44 ± 0.16 | 3.61 ± 0.35
QVEIFSTNPDLYPVRRIDGLTDVS [IQUB] | 3.71 ± 0.29 | 3.68 ± 0.27
QVGRGLRYIHSMSLVHMDIKPSNI [WEE1] | 2.15 ± 0.3 | 2.08 ± 0.25
QVQLGLRCCGAASYQDWQQNLYFN [TSPAN10] | 3.12 ± 1.1 | 2.81 ± 0.91
QYLRLPDAPEQRLRVMTTNIRSAR [ELOA2] | 3.58 ± 0.31 | 3.9 ± 0.16
QYSSHHTAEKRKRLGELFNPYYDP [CHGB] | 3.13 ± 0.25 | 3.28 ± 0.2
QYTVPGTEGVTQLKLTVVEDVTVG [ZFYVE21] | 3.86 ± 0.19 | 3.98 ± 0.41
RAESTANAGQSDNRSLAEACSEGD [ANKRD17] | 5.55 ± 0.24 | 5.53 ± 0.16
RAFLQTYSHEVSLTADSRKSHLIF [PCDHGA10] | 2.2 ± 0.34 | 2.08 ± 0.24
RAKDLVELDPEVEGTKPSATEMIW [GOLPH3L] | 4.07 ± 0.23 | 4.13 ± 0.45
RALHWAAYMGHLDVVALLINHGAE [ANKRD44] | 2.56 ± 0.43 | 3.12 ± 0.66
RAPQLHLEYRFYEQLGSGDGIPQV [CSNK1G3] | 3.36 ± 0.21 | 3.34 ± 0.1
RARIAKGLRLCRPKAKAKAKAKAK [RPL29] | 4.16 ± 0.48 | 4 ± 0.38
RASALLASCSKNCTNSPAIVRFSG [FBXO34] | 2.24 ± 0.24 | 2.59 ± 0.19
